From the supplement of paper PMC10567573

B1: PCMTD2 (parent)
chain: FFIRTSDSFDKFDFCEPSFVTGNC
B2: RPAIN (parent)
chain: ISEYEKSLQFDEKCLSIMLAEWEA

Variants of: B1
Experiment: protein stability index of a GFP-peptide fusion (GPS, HEK-293T) (PSI 1-6); higher = more stable
Conditions: c terminus: a fixed tail appended
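Also: lentivirally expressed fusions sorted by FACS into six bins by GFP to DsRed ratio, PSI derived from sequencing read proportions per bin multiplied by bin number.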

| Variant | protein stability index |
| --- | --- |
| F2Y | 2.58 |
| F2W | 3.73 |
| F2I | 2.55 |
| F2M | 1.81 |
| F2R | 1.65 |
| F2P | 2.13 |
| F2Q | 2.06 |
| F2H | 1.89 |
| F2L | 3.25 |
| F2V | 3.17 |
| F2E | 2.15 |
| F2C | 1.92 |
| F2N | 2.35 |
| F2A | 2.1 |
| F2D | 2.71 |
| F2K | 2.06 |
| F2S | 2.01 |
| F2T | 1.76 |
| F2G | 2.41 |
| I3P | 1.9 |
| I3M | 1.98 |
| I3K | 2.07 |
| I3A | 1.55 |

| Variant | protein stability index |
| --- | --- |
| I3L | 1.73 |
| I3C | 1.81 |
| I3D | 2.56 |
| I3W | 2.9 |
| I3V | 2.18 |
| I3E | 2.04 |
| I3S | 1.8 |
| I3H | 2 |
| I3R | 2.45 |
| I3Q | 1.96 |
| I3Y | 1.81 |
| I3N | 1.98 |
| I3T | 2.1 |
| I3G | 2.18 |
| I3F | 2.17 |
| R4D | 2.08 |
| R4C | 3.1 |
| R4K | 1.99 |
| R4A | 3.21 |
| R4I | 1.55 |
| R4G | 1.31 |
| R4F | 2.52 |
| R4E | 2.12 |

| Variant | protein stability index |
| --- | --- |
| R4H | 2.45 |
| R4L | 2.8 |
| F1P | 2.6 |
| F1W | 2.04 |
| F1E | 1.97 |
| F1I | 1.81 |
| F1H | 2.19 |
| F1C | 2.93 |
| F1R | 2.42 |
| F1Q | 1.87 |
| F1G | 2.28 |
| F1L | 2.4 |
| F1M | 2.32 |
| F1D | 2.41 |
| F1A | 1.82 |
| F1K | 2.4 |
| F1S | 2.31 |
| F1T | 1.8 |
| F1V | 2.15 |
| F1Y | 2.39 |
| F1N | 2.4 |

Variants of: B2
Experiment: as above
Conditions: c terminus: a fixed tail appended

| Variant | protein stability index |
| --- | --- |
| K13Q | 1.47 |
| K13F | 1.91 |
| K13S | 2.25 |
| K13P | 2.72 |
| K13R | 2.05 |
| E5V | 2.51 |
| E5L | 2.02 |
| S2H | 1.5 |
| S2W | 2.59 |
| S2C | 1.41 |
| E3K | 2.4 |
| E3W | 3.76 |
| E3R | 2.4 |
| D11K | 1.95 |
| D11S | 2.29 |
| I1Q | 2.64 |
| I1E | 2.04 |
| A20I | 1.48 |
| A20N | 1.44 |
| A20M | 2.49 |
| A20S | 1.88 |
| A20F | 1.54 |
| E12M | 1.66 |
| E12C | 1.9 |
| E12Q | 1.98 |

| Variant | protein stability index |
| --- | --- |
| Q9K | 2.23 |
| Q9R | 2.08 |
| Q9C | 1.64 |
| Q9D | 2.02 |
| W22H | 3.98 |
| W22N | 4.3 |
| W22D | 3.88 |
| W22C | 1.5 |
| W22Q | 3.08 |
| W22E | 4.21 |
| W22M | 1.78 |
| W22S | 2.11 |
| I17M | 1.97 |
| I17G | 2.8 |
| S16W | 1.86 |
| S16N | 1.37 |
| F10A | 3.21 |
| F10C | 2.99 |
| F10S | 3.08 |
| F10E | 3.47 |
| F10D | 3.15 |
| F10I | 2.93 |
| F10V | 2.45 |
| F10R | 2.96 |
| L19I | 2.77 |

| Variant | protein stability index |
| --- | --- |
| L19S | 3.4 |
| L19Y | 2.88 |
| L19W | 2.5 |
| L19D | 4.34 |
| L19P | 4.37 |
| L19T | 3.18 |
| L19H | 3.27 |
| L19V | 2.64 |
| K6D | 2.07 |
| K6G | 1.15 |
| K6W | 1.79 |
| K6R | 2.39 |
| K6M | 1.73 |
| K6Q | 2.06 |
| E21S | 2.31 |
| E21M | 1.9 |
| C14A | 1.9 |
| C14F | 2.38 |
| C14W | 1.35 |
| C14G | 2.27 |
| L15W | 2.86 |
| L15A | 3.74 |
| L15Y | 3.38 |
| L15R | 4.1 |
| S7I | 1.6 |

| Variant | protein stability index |
| --- | --- |
| S7D | 1.93 |
| S7Q | 2.13 |
| S7M | 1.56 |
| Y4G | 1.83 |
| Y4L | 2.33 |
| Y4I | 2.15 |
| Y4S | 1.77 |
| M18L | 2.18 |
| L8R | 2.38 |
| L8N | 2.71 |
| L8H | 2.65 |
| L8Q | 3.1 |
| L8V | 2.22 |
| L8T | 3.08 |
| L8S | 2.68 |
| E23S | 2.66 |
| E23M | 2.36 |
| E23F | 2.53 |
| E23Q | 2.06 |
| A24H | 2.49 |
| A24L | 1.59 |
| A24Q | 2.54 |
| A24F | 3.13 |
| A24R | 1.73 |
| A24Y | 1.25 |
